Reference: the nanobody polyreactivity screen of Harvey et al. (2022)

Assay: yeast display, Sf9 membrane polyspecificity reagent, FACS + sequencing; frameworks hold sequencing errors
Summary of the method: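 A synthetic nanobody library was expressed on Saccharomyces cerevisiae BJ5465 by galactose induction for 36–48 hours. The library was stained for 1 hour at 4 °C with 10% biotinylated, detergent-solubilized Sf9 membrane reagent and enriched with streptavidin microbeads before FACS. Low and high (top ~1%) gates were set on anti-HA fluorescence for expression and streptavidin fluorescence for reagent binding, and each polyreactivity label reflects the gate of origin.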
In the case of “QVQLVESGGGLVQAGGSLRLSCAASGSTFQYYAMGWYRQAPGKERELVAAISSGGRTNYADSVKGRFTISRDNAKNTVYLQMNSLKPEDTAVYYCAARWCYTKGEFDYWGQGTQVTVSS”, the “polyreactivity (PSR sort gate)” value is reported as “high polyreactivity”.
With “QVQLVESGGGLVQAGGRLRLSCAASGSTSVYYARGWYRQAPGKERELVAGITSGGNTNYADSVKGRFTISRDNAKNTVYFQMISLNPEDTSVYYCNAVYIVTVGWIRLGSYYYWGQGTQVTVSS” the “polyreactivity (PSR sort gate)” value was “low polyreactivity”.
In the case of “QVQLVESGGGLVQAGGSLRLSCAASGRTFSSYAMGWYRQAPGKERELVAAISWSGGRTYYADSVKGRFTISRDNAKNTVYLQMNSLKPEDTAVYYCAAEGDKRKYWYLYDYWGQGTQVTVSS”, the “polyreactivity (PSR sort gate)” value is reported as “high polyreactivity”.
With “QVQLVESGGGLVQAGGSLRLSCAASGSIFTVYAMGWYRQAPGKERELVAAISSSGGTTYYADSVKGRFTISRDNAKNTVYLQMTSLKPEDTAVYYCAAPTHSPYDYWGQGTQVTVSS” the “polyreactivity (PSR sort gate)” value was “low polyreactivity”.
In the case of “QVQLVESGGGLVQAGGSLRLSCAASGRSFGTYAMGWYRQAPGKERELVAAISRSGGRTYYADSVKGRFTISRDNAKNTVYLQMNSLKPEDTAVYYCAAATGSVPPYDYWGQGTQVTVSS”, the “polyreactivity (PSR sort gate)” value is reported as “high polyreactivity”.
In the case of “QVQLVESGGGLVQAGGSLRLSCAASGSTFRGYAMGWYRQAPGKERELVATITSGGSTKYADSVKGRFTISRDNAKNTVYLQMNSLKPEDTAVYYCNAVPRSWSPYSHWFDYWGQGTQVTVSS”, the “polyreactivity (PSR sort gate)” value is reported as “low polyreactivity”.
For “QVQLVESGGGIVQAGRSLRLTCAASGITFKAYTMGWYRQAPGKERELVATISRGGRTYADSVKGRFTISRDNAKNTVYLQINSLKPEDTAVYYCAADKYWAQNDYWGQGTQVTVSS”, the “polyreactivity (PSR sort gate)” value was “low polyreactivity”.
In the case of “QVQLVESGGGLVQAGGSLRLSCAASGFTFHFYAMGWYRQAPGKEREWVAAISWRGSSTYYADSVKGRFTISRDNAKNTVYLQMNSLKPEDTAVYYWNALYYYPYDYWGQGTQVTVSS”, the “polyreactivity (PSR sort gate)” value is reported as “high polyreactivity”.
For “QVQLVESGGGLVQAGGSLRLSCAASGRTLYRNDMGWYIQAPGKERELVARITWSGASTYYADSVKGRFTISRDNAKNSVYLQMKSLKTEDTAVYFCAALYLSRRYGPDDSYNFWGQGTQVTVSS”, the “polyreactivity (PSR sort gate)” value was “high polyreactivity”.
With “QVQLVESGGGLVQAGGSLRLSCAASGRIFNYYAMGWYRLAPGKERELVAAINSGGSTYADSVKGRFTISRDNAKNTVYLEMNSLKPEDTAVYYCANDGQLQSGRERPSGYDHWGQGTQVTVSS” the “polyreactivity (PSR sort gate)” value was “low polyreactivity”.
In the case of “QVQLVESGGGLVQAGGSLRLSCAASGGTFHRYAMGWYRQAPGKERELVAAISGSGASTYYADSVKGRFTISRDNAKNTVYLQMNSLKPEDTAVYYCNALWYYQIGPRGDHWGQGTQVTVSS”, the “polyreactivity (PSR sort gate)” value is reported as “high polyreactivity”.
With “QVQLVESGGCLVQAGGSLRLSCAASGSIFDYNAMGWYRQAPGKEREFVAAISSSAGSTYYADSVKGRFTISRDNAKNTVYLQMNSLKPEDTAVYDCAADWYDFSFPYYEYEYWGQGTQVTVSS” the “polyreactivity (PSR sort gate)” value was “low polyreactivity”.
With “QVQLVESGGGLVQAGGSLRLSCAASGRTFYDYAMGWYRQAPGKERELVAAITSGGSTNYADSVKGRFTISRDNAKNTVYLQMNSLKPEDTAGYYCAADDFYVWGFDMNYWGQGTQVTVSS” the “polyreactivity (PSR sort gate)” value was “high polyreactivity”.
For “EEELVESGGGLVQAGGSLRLSCAASGSIFQYNAMGWYRQAPGKDRELVAVISWSGDTYYADSVKGRFTISRDNAKNTVYLQMNSLKPEDTAVYYCNAVQYTFTSEYGYWGQGTQVTVSS”, the “polyreactivity (PSR sort gate)” value was “low polyreactivity”.
In the case of “QVQLVESGGGLVQAGGSLRLSCAASGSIFYNNAMGWYRQAPGKERELVATIRRSGGSTYYADSVKGRFTISRDNAKNTVYLQMNSLKPEDTAVYYCAADYTPDLLSKVDYWGQGTQVTVSS”, the “polyreactivity (PSR sort gate)” value is reported as “low polyreactivity”.
For “QVQLVESGGGLVQAGGSLRLSCAASGRTFYGYAMGWYRQAPGKERELVASIRQSAGRTYYADSVKGRFTISRDNAKNTVYLQMNSLKPEDTAVYYCAASIFLRSFYQQGNYWGQGTQVTVSS”, the “polyreactivity (PSR sort gate)” value was “high polyreactivity”.
In the case of “QVQLVESGGGLVQAGGSLRISCAASGLTFDYNAMGWYTQAPGKERELVAAITSGGSTKYADSVKGRFTISRDNSKNTVYLQMNSLKPEDTAVYYCARDRPGDYAGYDYWGQGTQVTVSS”, the “polyreactivity (PSR sort gate)” value is reported as “low polyreactivity”.
For “QVQLVESGGGLVQAGGSLRLSCAASGFIIRSYAMGWYRQAPVKERELVAAISRGSRTYYADSVKGRFTISRDNAKNTVYLQMNSLKPEDTAVYYCNADPNVPVETFDYWGQGTQVTVSS”, the “polyreactivity (PSR sort gate)” value was “high polyreactivity”.
For “QVQLVESGGGLVQAGGSLRLSCAASGITFYYYAMGWYRQAPGKERELVAAISVSGGSTYYADSVKGRFTISRDNAKNTVYLQMNSLKPEDTAVYYCAAADLLSYTYPEYDYWGQGTQVTVSS”, the “polyreactivity (PSR sort gate)” value was “low polyreactivity”.
With “QVQLVESGGGLVQAGGSLRLSCAASGYTFSRYAMGWYRQAPGKERELVAAITSRGGRTYYADSVKVRFTISRDNAKNTVFLQMNSLKPEDNAVYYCAADVIFWRTGYDYWGPGTQVTVSS” the “polyreactivity (PSR sort gate)” value was “high polyreactivity”.
In the case of “QVQLVESGGGLVQAGGSLRLSCAASGRIIVLYAMGWYIQAPGKERELVASIRSGGSTNYADSVKGRFTISRDNAKNTVYLQMNSLKPEDTAVYYCAARIRSVVPFDMDYWGQGTQVTVSS”, the “polyreactivity (PSR sort gate)” value is reported as “low polyreactivity”.
In the case of “QVQLVESGGGLVQAGGSLRLSCAASGRIFGRNARGWYRQAPGKERELVAAISSSGGTYYADSVKGRFTISRYNAKNTVYLQMNSLKPEDTAVYYCNARVRTQQRWVDYWGLGTQVTVSS”, the “polyreactivity (PSR sort gate)” value is reported as “high polyreactivity”.
In the case of “QVQLVESGGGLVQAGGSLRLSCAASGRIFHKYAMGWYRQAPGKERELVATIRSDDITYYADSVKGRFTISRDNAKNTVYLQMNSLKPEDTAVYYCAAYFWRYSSLYYYWGQGTQVTVSS”, the “polyreactivity (PSR sort gate)” value is reported as “high polyreactivity”.
With “QVQLVESGGGLVQAGGSLRLSCAASGIIFPLYMGWDRQAPGTERVLVAAINSIGGRTYYADSVKGRFTISRDNAKNTVYLQMNSLKPEDTAVYYCNAVPVGWRYRQYDYWGQGTQVTVSS” the “polyreactivity (PSR sort gate)” value was “high polyreactivity”.
With “QVQLVESGGGLVQAGGSLRLICAAYGRIFQGYAMGWYRQAPGKERELVAAITLSGGSTYYADSVKGRFTISRDNAKNTVYLQMNSLKPEDTAVSYCNAYYPDEPSLYDYWGQGTQVTVSS” the “polyreactivity (PSR sort gate)” value was “low polyreactivity”.
In the case of “QVQLVESGGGLVQAGGSLRLSCAASGFIFVIYAMGWSRQAPGKERELVAAIRWRGGGTYYADSVKGRFTISRDNAKNTVYLQMYSLKPEDTAVYYCNADGWTYREEYWWRMDYWGQGTQVTVSS”, the “polyreactivity (PSR sort gate)” value is reported as “low polyreactivity”.
For “QVQLVESGGGLVQAGGSLRLSCATSGSIFVFNAMGWYRQAPGKERELVAAIDTSDDITYYADSVKGRFTISRDNAKNTVYLQMNSLKPEDTAVYYCNAETYGLVPYYIYHYEFDYWGQGTQVTVSS”, the “polyreactivity (PSR sort gate)” value was “high polyreactivity”.
In the case of “QVQLVESGGGLVQAGGSLRLSCAASGSTFPRNAMGWYRQAPGKERELVATISTSGGSTYYADSVKGRFTISRDNAKNTVYLQMNSLKPEDTPVYYCAAVFWFRSLSGYIYDYWGQGTQVSVSS”, the “polyreactivity (PSR sort gate)” value is reported as “low polyreactivity”.
With “QVQLVESGGGLVQAGGSLRLSCAASGSIFYYYAMGWSRQAPGKERELVAGINSGDSTYYADSVKGRFTISRDNAKNTVYLQMNRLKPEYTAVYYCAASADWWYEYWGQGTEVTVSS” the “polyreactivity (PSR sort gate)” value was “low polyreactivity”.
In the case of “QVQLVESGGGLVQAGGSLRLTCAASGLTFWWYAMGWYRQAPGKERELVAGITGGGSTSYADSVKGRFTISRDNAKNTVYLQMNSLIQEDTAVYYCAASPYNGQRTWYKYFFLGDYWGQGTQVTVSS”, the “polyreactivity (PSR sort gate)” value is reported as “high polyreactivity”.
For “QVQLVESGGGLVQAGGSLRLSCAASGYTINPYAIGWYRQAPGKERELVATIRSSGSTNYADSVKGRFTISRDNAKYTVYLQRNSLKPEDTAVYYFAARTSGRTVRYYYWGQGTQVTVSS”, the “polyreactivity (PSR sort gate)” value was “high polyreactivity”.
With “QVQLVESGGGLVQAGGSLRLSCAASGSIFGYNAMGWYRQAPGKERELVAAITSIGGNTYADSVKGRFTISRDNAKNTVYLQMNSLKPEDTAVYYCAAERNTDPIQVVYEFDYWGQGTQVTVSS” the “polyreactivity (PSR sort gate)” value was “low polyreactivity”.
For “QVQLVESGVGLVQAGGTLRLSCAASGSIFDWNVIGWYRQTPGKERELVASISESTDSTYYADSVKGRFTISRDNAKNTVYFQMNSLKPEDTAVYYCATAYPEWAVWGYDYWGQGTQVTLSS”, the “polyreactivity (PSR sort gate)” value was “low polyreactivity”.
For “QVQLVESVGGLVQAGGSLRLSCAASGSTFGYYTMGSYRQAPGKEKELVAAITWSGGSTYYADSVKGRITISRDNAKYTVYLQINSLKPEDTAVYYCADDDYWTPFGYLGQGTQVTVSS”, the “polyreactivity (PSR sort gate)” value was “low polyreactivity”.
With “QVQLVESGGGLVQAGGSLRLSCAASGSTFTVNGMGWYRQAPGKERELVASITWSGGSTYYADSVKGRFTISRDNAKNTVYLLMNSLKPEDTAVYYCAADEKLYITGYDYWGHGTQVTVSS” the “polyreactivity (PSR sort gate)” value was “low polyreactivity”.
With “QVQLVETGGCLVQAGGSLRLSCAASGSTFYLYAMGWNRQAPGKETDLVASISQSGGSTIYADSVKGRFTISRDNAKNTVYLHMNSLKPEDTAVYYFAAGAGYFRYPRSGVWYVTLYDYWGEGTQVTVSS” the “polyreactivity (PSR sort gate)” value was “high polyreactivity”.
For “QVQLVESGGGLVQAGGSLRLSCAASGSIFHPYTMGWYRQAPGKERELVAGISQSSDSTYYADSVKGRFTISRDNAKNTVYLQMNSLKPEDTAVYYCNRDNDWPLSVVEVDYWGQGTQVTVSS”, the “polyreactivity (PSR sort gate)” value was “low polyreactivity”.
In the case of “QVQLVESGGGLIQPGGSLRLSCAASGSTFANNAMGWYRQAPGKESELVASISSDGSTNYADSVKGRFTISRDNAKNTVYLQMNSLKPEDTAVYYCAADWYYSADYFHFGYWGQGTQVTVSS”, the “polyreactivity (PSR sort gate)” value is reported as “low polyreactivity”.
In the case of “QVQLVESGGGLVQAGGSLRLSCAASGLTFDGNTMGWYRQAPGKERELVAAISFDGGNTYADSVNGRFTISRDNAKNTVYLQMNSLKPEDTAVYYDYWGQGTQVTVSS”, the “polyreactivity (PSR sort gate)” value is reported as “low polyreactivity”.
In the case of “QVQLVESGGRLVQAGGSLRFSCAASGGIFESYAMGGYRQAPGQERELVASISSGGSTYYADSVKGRFTISRDNAKNTVYLQMNSLKPEDTAVYYCNTDNGSHGMDYWGQGTQVTVSS”, the “polyreactivity (PSR sort gate)” value is reported as “low polyreactivity”.
In the case of “QVQLVESGGGLVQAGGSLRLSCAASGSTFSYNAMGWYRQAPGKERELVAAITSGSSTNYADSVKGRFTISRDNAKNTVYLQMNSLKPEDTAVYYCAADGYQDKYYWLENWVGYWGQGTQVTVSS”, the “polyreactivity (PSR sort gate)” value is reported as “low polyreactivity”.
In the case of “QDQLVESGGGLVQAGGSLRLSCAAYGYTFDDNAMGWFRQAPGKERELVAAINWDGASTYADSVKGRFTISRDNAKNTVYLQMNSLKPEDTAVYYCTASGKDIFNYVYQGYDYCGQGTQVTVSS”, the “polyreactivity (PSR sort gate)” value is reported as “low polyreactivity”.
In the case of “QVQLEDSGGGLVQAGGSLRLSCAASGITVFYYAMGWSRQAPGKERELVATMSWGGDSTYSADSVKGRFTISRDNAKNTVYLQMNSLKPEDTAVYYCAARYWFFRFWYDYWGQGTQVTVSS”, the “polyreactivity (PSR sort gate)” value is reported as “high polyreactivity”.
